Laboratory results from patent US6365373 (Genentech, dated 2002).

Assays:
[1] = biological target: T1, human trkA receptor immunoadhesin (trkA extracellular domain fused to immunoglobulin constant domains) (human, UniProt P04629 33-423); test: competitive displacement of labeled NGF from human trkA immunoadhesin, 96-well plate
T1 construct: extracellular domain; not shown: immunoglobulin constant domains

[2] = biological target: T2, human trkC receptor immunoadhesin (trkC extracellular domain fused to immunoglobulin constant domains) (human, UniProt Q16288 32-429); test: competitive displacement of labeled NT-3 from human trkC immunoadhesin, 96-well plate
T2 construct: extracellular domain; not shown: immunoglobulin constant domains

T1 sequence (P04629 33-423): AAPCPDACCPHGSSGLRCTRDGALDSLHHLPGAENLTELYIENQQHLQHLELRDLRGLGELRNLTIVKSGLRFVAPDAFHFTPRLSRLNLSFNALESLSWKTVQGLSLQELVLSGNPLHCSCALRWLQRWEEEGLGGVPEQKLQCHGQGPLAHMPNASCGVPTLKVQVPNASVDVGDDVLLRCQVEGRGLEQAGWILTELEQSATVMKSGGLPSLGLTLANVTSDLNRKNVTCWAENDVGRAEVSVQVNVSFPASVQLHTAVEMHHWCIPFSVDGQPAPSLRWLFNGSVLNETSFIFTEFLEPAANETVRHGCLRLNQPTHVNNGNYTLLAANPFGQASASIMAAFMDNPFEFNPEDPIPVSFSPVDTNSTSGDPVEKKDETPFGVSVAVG

B1: NGF127 (ligand)
chain: SSSHPIFHRGEFSVCDSESLWVTDKTTATDIKGKEVMVLGEVNINNSVFKQYFFETKCRDPNPVDSGCRGIDSKHWNSQCKTTQTFVKALTMDGKQAAWRFIRIDTACVCVLSRKAVRRA
With B1 the IC50mut/IC50NGF [1] was 1 ratio, the IC50mut/IC50NGF12 [2] was 2.2 ratio and the IC50mut/IC50NT-3 [2] was 33 ratio.

B2: NGF131 (ligand)
chain: SSSHPIFHRGEFSVCDSVSLWVTDKTTAIDIKGKEVMVLGEVNINNSVFKQYFFETKCRDPNPVDSGCRGIDSKHWNSYCTTTQTYVKALTMDGKQAAWRFIRIDTACVCVLSRKAVRRA
notes: also called NGF31
B2 was tested, and the IC50mut/IC50NGF [1] was 1.1 ratio, the IC50mut/IC50NGF12 [2] was 0.2 ratio and the IC50mut/IC50NT-3 [2] was 3.3 ratio.

B3: NGF130 (ligand)
chain: SSSHPIFHRGEFSVCDSVSLWVTDKTTATDIKGKEVMVLGEVNINNSVFKQYFFETKCRDPNPVDSGCRGIDSKHWNSYCTTTQTYVKALTMDGKQAAWRFIRIDTACVCVLSRKAVRRA
With B3 the IC50mut/IC50NGF [1] was 1 ratio, the IC50mut/IC50NGF12 [2] was 0.3 ratio and the IC50mut/IC50NT-3 [2] was 4.5 ratio.

B4: NGF1234 (ligand)
chain: SSSHPIFHRGEFSVCDSESLWVTDKTTAIDIKGKEVMVLGEVNINNSVFKQYFFETKCRDPNPVDSGCRGIDSKHWNSQCKTTQTYVKALTMDGKQAAWRFIRIDTACVCVLSRKAVRRA
In the case of B4, the IC50mut/IC50NGF [1] is reported as 1.3 ratio, the IC50mut/IC50NGF12 [2] is reported as 0.3 ratio and the IC50mut/IC50NT-3 [2] is reported as 4.9 ratio.

B5: NGFR3 (ligand)
chain: SSSHPIFHRGEFSVCDSESVWVTDKTTATDIKGKEVMVLGEVNINNSVFKQYFFETKCRDPNPVDSGCRGIDSKHWNSYCKTTQTFVKALTMDGKQAAWRFIRIDTACVCVLSRKAVRRA
In the case of B5, the IC50mut/IC50NGF [1] is reported as 1.6 ratio, the IC50mut/IC50NGF12 [2] is reported as 2.5 ratio and the IC50mut/IC50NT-3 [2] is reported as 37.2 ratio.

B6: NGFR2 (ligand)
chain: SSSHPIFHRGEFSVCDSVSLWVTDKTTATDIKGKEVMVLGEVNINNSVFKQYFFETKCRDPNPVDSGCRGIDSKHWNSYCKTTQTFVKALTMDGKQAAWRFIRIDTACVCVLSRKAVRRA
With B6 the IC50mut/IC50NGF [1] was 0.9 ratio, the IC50mut/IC50NGF12 [2] was 0.7 ratio and the IC50mut/IC50NT-3 [2] was 10.5 ratio.
